Measured values taken from patent publication US20190359653A1, “SELECTIVE PEPTIDE INHIBITORS OF FRIZZLED” (Genentech, Inc., priority 2016, published 2019).

Target: FZD7 class proteins
Assay: ELISA of biotinylated Wnt binding to FZD CRD-Fc with or without peptide

fold enhancement of binding by Fz7-21 or dFz7-21: 1.5 to 2 fold
Substance: Biotinylated Wnt3a (from UniProt P27467 19-352) (ligand)
